Assay results published in article PMC12871931, “The importin‐alpha superfamily engages in ethylene signaling by shuttling ETHYLENE INSENSITIVE 2 from the endoplasmic reticulum to the nucleus” (The Febs Journal, 2025).
Blank lines part the entries; values can stand above or below the binder they belong to.

Biological target: ΔIBB_IMPα1 (importin α1 lacking the IBB domain), Arabidopsis thaliana, recombinant (Arabidopsis thaliana)
Assay: BLI; Octet K2; biotinylated ΔIBB_IMPα1 or IMPα4 loaded (15 μM, 600 s) on streptavidin biosensors; peptides/protein in solution; 100 mM Tris pH 7.0, 100 mM KCl, 0.01% Tween 20; room temperature; 300 s association, 300 s dissociation; dose response curves, 1:2 heterogeneous ligand model

- Kd: 8.8 µM
B1: GB1‐AtEIN2C^1215–1281 (domain or fragment)
chain: KGKCTTAVTLLDLIKDVEMAISCRKGRTGTAAGDVAFPKGKENLASVLKRYKRRLSNKPVGMNQDGP

- Kd: 2.5 µM
Binder: LKRYKRRL [NOP‐1 (EIN2 NLS peptide, EIN2 residues 1262–1269)]

- Kd: 8.1 µM
Binder: KDVEMAISCRKGRTGTAAGDVAFPKGKENLASVLKRYKRRL [N41P‐1 (EIN2 residues 1229–1269)]
